{"source": "patent US20240002844", "target": "T1, recombinant SHN3 (rSHN3, 50-930 aa) (UniProt A2A884)", "T1 sequence": "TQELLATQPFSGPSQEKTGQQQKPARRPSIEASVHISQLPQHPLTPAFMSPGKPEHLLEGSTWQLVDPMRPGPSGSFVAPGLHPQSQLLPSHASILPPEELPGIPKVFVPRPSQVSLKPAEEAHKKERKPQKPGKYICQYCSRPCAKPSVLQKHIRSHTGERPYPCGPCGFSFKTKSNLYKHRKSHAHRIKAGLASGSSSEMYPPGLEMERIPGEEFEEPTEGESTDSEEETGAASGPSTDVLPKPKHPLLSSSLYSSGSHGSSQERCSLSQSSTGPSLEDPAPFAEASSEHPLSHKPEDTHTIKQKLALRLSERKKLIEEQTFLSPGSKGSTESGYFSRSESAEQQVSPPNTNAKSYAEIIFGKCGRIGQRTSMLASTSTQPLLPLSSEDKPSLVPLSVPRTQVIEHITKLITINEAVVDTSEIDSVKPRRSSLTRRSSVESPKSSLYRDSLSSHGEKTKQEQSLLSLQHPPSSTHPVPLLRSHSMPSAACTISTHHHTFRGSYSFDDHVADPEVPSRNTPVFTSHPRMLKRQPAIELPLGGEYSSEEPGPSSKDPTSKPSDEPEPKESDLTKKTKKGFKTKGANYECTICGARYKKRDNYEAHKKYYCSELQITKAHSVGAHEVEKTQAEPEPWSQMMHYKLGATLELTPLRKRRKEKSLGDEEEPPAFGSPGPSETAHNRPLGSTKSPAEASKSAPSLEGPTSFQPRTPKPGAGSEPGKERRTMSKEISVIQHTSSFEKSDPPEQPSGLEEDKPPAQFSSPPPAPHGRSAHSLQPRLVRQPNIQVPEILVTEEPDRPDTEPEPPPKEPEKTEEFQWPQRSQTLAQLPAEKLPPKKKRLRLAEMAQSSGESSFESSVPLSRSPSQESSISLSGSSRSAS"}
{"substance": "recombinant ERK2 (rERK2)", "values": [{"measurement": "in vitro kinase assay: rERK2-induced phosphorylation of rSHN3 (FIG. 9C)", "value": "recombinant SHN3 (rSHN3) was phosphorylated by recombinant ERK2 (rERK2)"}, {"measurement": "in vitro kinase assay: rERK2-induced phosphorylation of the ERK substrate ELK1 (FIG. 9C)", "value": "rSHN3 inhibited rERK2-induced phosphorylation of the ERK substrate ELK1"}, {"measurement": "phospho-spectrometry analysis of rERK and rSHN3 (FIG. 9D)", "value": "rERK phosphorylates rSHN3 at two serines (810 and 811 aa), one threonine (851 aa), and two serines (911 and 913 aa)"}]}
